Data taken from patent US20140087995A1 (published 2014).
Numbered stars: 1 amine (or outer) side, 2 acyl side, 3 side chain; on linkers, the order of the positions; unused ones are H or OH. Bridge positions count the residues as written; N and C are the ends. Side chains are listed from the residue outwards. Ends that are not written are not given here. * marks the point of attachment. C20 diacid = O=C(O)CCCCCCCCCCCCCCCCCCC(=O)*; γGlu = O=C(O)[C@H](CCC(=O)[*:2])N[*:1]; AEEA = NCCOCCOCC(=O)O

T1: rat calcitonin receptor (rat, UniProt P32214 25-516)
T1 construct: whole, on cells; also called rCTR; rat calcitonin (a) receptor
T1 sequence (looked up): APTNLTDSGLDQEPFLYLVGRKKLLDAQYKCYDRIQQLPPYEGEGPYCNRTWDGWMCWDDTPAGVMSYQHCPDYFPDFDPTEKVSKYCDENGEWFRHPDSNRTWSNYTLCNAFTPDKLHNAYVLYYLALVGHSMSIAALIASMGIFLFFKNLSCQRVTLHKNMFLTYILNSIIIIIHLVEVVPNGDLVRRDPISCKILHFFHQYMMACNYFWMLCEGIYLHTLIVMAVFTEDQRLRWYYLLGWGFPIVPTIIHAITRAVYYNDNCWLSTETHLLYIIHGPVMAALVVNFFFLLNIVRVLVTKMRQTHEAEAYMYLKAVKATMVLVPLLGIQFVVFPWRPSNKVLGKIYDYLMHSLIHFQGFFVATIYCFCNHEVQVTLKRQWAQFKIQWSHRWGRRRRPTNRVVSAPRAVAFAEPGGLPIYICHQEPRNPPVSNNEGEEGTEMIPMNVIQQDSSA

T2: human calcitonin receptor (human, UniProt P30988 25-474)
T2 construct: whole, on cells; also called hCTR; hCT
T2 sequence (looked up): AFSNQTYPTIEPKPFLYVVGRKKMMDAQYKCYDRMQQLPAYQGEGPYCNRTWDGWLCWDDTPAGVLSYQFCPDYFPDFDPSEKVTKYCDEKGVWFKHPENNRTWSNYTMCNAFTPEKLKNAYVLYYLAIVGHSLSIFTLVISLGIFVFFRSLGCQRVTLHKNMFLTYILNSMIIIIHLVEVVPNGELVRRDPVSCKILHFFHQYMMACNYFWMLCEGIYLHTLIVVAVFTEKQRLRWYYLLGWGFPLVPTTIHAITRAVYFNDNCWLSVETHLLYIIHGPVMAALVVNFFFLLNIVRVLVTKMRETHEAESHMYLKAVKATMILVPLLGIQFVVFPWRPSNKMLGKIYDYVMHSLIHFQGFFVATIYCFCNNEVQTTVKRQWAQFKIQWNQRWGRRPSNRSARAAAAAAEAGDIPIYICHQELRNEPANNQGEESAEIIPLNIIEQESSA

T3: rat amylin receptor (rat calcitonin receptor + rat RAMP 3) (rat, UniProt P32214 25-516; Q9JJ73 23-147)
T3 construct: whole, on cells; also called rAmylin-R; rat amylin 3(a) receptor
T3 sequence (looked up) 1: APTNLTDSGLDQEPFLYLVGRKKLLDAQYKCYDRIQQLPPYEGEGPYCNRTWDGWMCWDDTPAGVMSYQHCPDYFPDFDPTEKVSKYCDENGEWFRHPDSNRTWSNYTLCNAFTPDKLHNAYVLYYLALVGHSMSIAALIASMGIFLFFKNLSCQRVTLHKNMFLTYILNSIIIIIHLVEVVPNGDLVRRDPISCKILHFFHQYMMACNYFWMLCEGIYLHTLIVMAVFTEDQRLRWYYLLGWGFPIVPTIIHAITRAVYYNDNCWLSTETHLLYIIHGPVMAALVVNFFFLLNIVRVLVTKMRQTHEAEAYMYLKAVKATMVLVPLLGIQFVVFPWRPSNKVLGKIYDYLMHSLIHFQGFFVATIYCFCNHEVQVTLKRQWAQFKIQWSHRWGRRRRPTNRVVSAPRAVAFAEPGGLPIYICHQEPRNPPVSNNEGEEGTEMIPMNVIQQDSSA
T3 sequence (looked up) 2: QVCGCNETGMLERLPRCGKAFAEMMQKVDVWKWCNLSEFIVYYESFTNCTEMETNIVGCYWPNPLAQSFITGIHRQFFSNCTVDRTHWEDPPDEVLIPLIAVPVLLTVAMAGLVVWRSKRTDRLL


Legend:
rat calcitonin receptor [1] = target: T1, rat calcitonin receptor; assay: ratio of binding IC50s: rat calcitonin receptor over rat amylin receptor (reference)
[2] = target: T2, human calcitonin receptor; assay: ratio of binding IC50s: human calcitonin receptor over human amylin receptor (reference)
Description: The resulting pellet was resuspended, homogenized and centrifuged (20.000 rpm, 15 min) in a buffer containing 20 mM Na-HEPES and 0.1 mM EDTA (pH 7.4, buffer 2). The resulting pellet was resuspended in buffer 2 and protein concentration was measured (BCA protein Assay, Pierce). The homogenate was kept cold during the whole procedure. The membranes were kept at −80° C. until use. The assay was performed in a 384 well Optiplate (PerkinElmer) in a total volume of 40 ul. Membranes were mixed with SPA beads. Final concentration of membranes 35 ng/μL final and SPA beads was 0.05 mg/well. Test-compounds were dissolved in DMSO and further diluted in assay buffer (50 mM Hepes, pH 7.4, 1 mM CaCl2, 5 mM MgCl₂, 0.1% OA and 0.02% Tween20). […] The final mixture was incubated with shaking at 400 rpm for 120 min at 25° C. prior to centrifugation (1500 rpm, 10 min). Samples were analyzed on TopCounter™ (Packard). The IC₅₀ was calculated using (one site binding competition analysis) GraphPad Prism5 as a measure of receptor affinity.
Membranes were prepared in the following way; the cells were rinsed with PBS and incubated with Versene for approximately 5 min before harvesting. The cells were flushed with PBS and the cell-suspension was centrifuged for 5 min at 1000 rpm. Cells were homogenized (Ultrathurrax) in a buffer containing 20 mM Na-HEPES and 10 mM EDTA (pH 7.4) and centrifuged at 20.000 rpm for 15 min. The resulting pellet was resuspended, homogenized and centrifuged (20.000 rpm, 15 min) in a buffer containing 20 mM Na-HEPES and 0.1 mM EDTA (pH 7.4, buffer 2). The resulting pellet was resuspended in buffer 2 and protein concentration was measured (BCA protein Assay, Pierce). The homogenate was kept cold during the whole procedure. The membranes were kept at −80° C. until use. Assay was performed in a 384 well Optiplate (PerkinElmer) in a total volume of 40 ul. Membranes were mixed with SPA beads.

rat calcitonin receptor [3] = target: T1, rat calcitonin receptor; assay: SPA competition with 125I-calcitonin, membranes of BHK cells with rat calcitonin receptor (Assay VIII)
[4] = target: T3, rat amylin receptor (rat calcitonin …); assay: SPA competition with 125I-rat amylin, membranes of BHK cells with rat calcitonin receptor + rat RAMP3 (Assay VI)

Row | Ratio rCT/rAmylin binding (rat calcitonin receptor [1]) | Ratio hCT/hAmylin binding [2] | IC50 (rat calcitonin receptor [3]) [nM] | IC50 [4] [nM] | Binder
1 | 77.2 | 51.8 | 6.25 | 0.081 | K([AEEA-γGlu-C20 diacid])CNTATCATQRLANFLRHSSPNFGAIPPSTNVGPNTY-NH2 (disulfide 2-7; N-terminus assumed; SMILES CC[C@H](C)[C@H](NC(=O)[C@H](C)NC(=O)CNC(=O)[C@H](Cc1ccccc1)NC(=O)[C@H](CC(N)=O)NC(=O)[C@@H]1CCCN1C(=O)[C@H](CO)NC(=O)[C@H](CO)NC(=O)[C@H](Cc1c[nH]cn1)NC(=O)[C@H](CCCNC(=N)N)NC(=O)[C@H](CC(C)C)NC(=O)[C@H](Cc1ccccc1)NC(=O)[C@H](CC(N)=O)NC(=O)[C@H](C)NC(=O)[C@H](CC(C)C)NC(=O)[C@H](CCCNC(=N)N)NC(=O)[C@H](CCC(N)=O)NC(=O)[C@@H](NC(=O)[C@H](C)NC(=O)[C@@H]1CSSC[C@H](NC(=O)[C@@H](N)CCCCNC(=O)COCCOCCNC(=O)CC[C@H](NC(=O)CCCCCCCCCCCCCCCCCCC(=O)O)C(=O)O)C(=O)N[C@@H](CC(N)=O)C(=O)N[C@@H]([C@@H](C)O)C(=O)N[C@@H](C)C(=O)N[C@@H]([C@@H](C)O)C(=O)N1)[C@@H](C)O)C(=O)N1CCC[C@H]1C(=O)N1CCC[C@H]1C(=O)N[C@@H](CO)C(=O)N[C@H](C(=O)N[C@@H](CC(N)=O)C(=O)N[C@H](C(=O)NCC(=O)N1CCC[C@H]1C(=O)N[C@@H](CC(N)=O)C(=O)N[C@H](C(=O)N[C@@H](Cc1ccc(O)cc1)C(N)=O)[C@@H](C)O)C(C)C)[C@@H](C)O, synthetic analogue of human amylin; also called compound 55)
2 | 131 | 42.6 | 5.26 | 0.04 | K([AEEA-γGlu-C20 diacid])CNTATCATQRLANFLRHSSPNFGAIPSPTNVGPNTY-NH2 (disulfide 2-7; N-terminus assumed; SMILES CC[C@H](C)[C@H](NC(=O)[C@H](C)NC(=O)CNC(=O)[C@H](Cc1ccccc1)NC(=O)[C@H](CC(N)=O)NC(=O)[C@@H]1CCCN1C(=O)[C@H](CO)NC(=O)[C@H](CO)NC(=O)[C@H](Cc1c[nH]cn1)NC(=O)[C@H](CCCNC(=N)N)NC(=O)[C@H](CC(C)C)NC(=O)[C@H](Cc1ccccc1)NC(=O)[C@H](CC(N)=O)NC(=O)[C@H](C)NC(=O)[C@H](CC(C)C)NC(=O)[C@H](CCCNC(=N)N)NC(=O)[C@H](CCC(N)=O)NC(=O)[C@@H](NC(=O)[C@H](C)NC(=O)[C@@H]1CSSC[C@H](NC(=O)[C@@H](N)CCCCNC(=O)COCCOCCNC(=O)CC[C@H](NC(=O)CCCCCCCCCCCCCCCCCCC(=O)O)C(=O)O)C(=O)N[C@@H](CC(N)=O)C(=O)N[C@@H]([C@@H](C)O)C(=O)N[C@@H](C)C(=O)N[C@@H]([C@@H](C)O)C(=O)N1)[C@@H](C)O)C(=O)N1CCC[C@H]1C(=O)N[C@@H](CO)C(=O)N1CCC[C@H]1C(=O)N[C@H](C(=O)N[C@@H](CC(N)=O)C(=O)N[C@H](C(=O)NCC(=O)N1CCC[C@H]1C(=O)N[C@@H](CC(N)=O)C(=O)N[C@H](C(=O)N[C@@H](Cc1ccc(O)cc1)C(N)=O)[C@@H](C)O)C(C)C)[C@@H](C)O, synthetic analogue of human amylin; also called compound 56)
3 | 179 | 146 | 8.79 | 0.049 | K([AEEA-γGlu-C20 diacid])CNTATCATQRLANFLRHSSPNFGAIPSPTPVGSNTY-NH2 (disulfide 2-7; N-terminus assumed; SMILES CC[C@H](C)[C@H](NC(=O)[C@H](C)NC(=O)CNC(=O)[C@H](Cc1ccccc1)NC(=O)[C@H](CC(N)=O)NC(=O)[C@@H]1CCCN1C(=O)[C@H](CO)NC(=O)[C@H](CO)NC(=O)[C@H](Cc1c[nH]cn1)NC(=O)[C@H](CCCNC(=N)N)NC(=O)[C@H](CC(C)C)NC(=O)[C@H](Cc1ccccc1)NC(=O)[C@H](CC(N)=O)NC(=O)[C@H](C)NC(=O)[C@H](CC(C)C)NC(=O)[C@H](CCCNC(=N)N)NC(=O)[C@H](CCC(N)=O)NC(=O)[C@@H](NC(=O)[C@H](C)NC(=O)[C@@H]1CSSC[C@H](NC(=O)[C@@H](N)CCCCNC(=O)COCCOCCNC(=O)CC[C@H](NC(=O)CCCCCCCCCCCCCCCCCCC(=O)O)C(=O)O)C(=O)N[C@@H](CC(N)=O)C(=O)N[C@@H]([C@@H](C)O)C(=O)N[C@@H](C)C(=O)N[C@@H]([C@@H](C)O)C(=O)N1)[C@@H](C)O)C(=O)N1CCC[C@H]1C(=O)N[C@@H](CO)C(=O)N1CCC[C@H]1C(=O)N[C@H](C(=O)N1CCC[C@H]1C(=O)N[C@H](C(=O)NCC(=O)N[C@@H](CO)C(=O)N[C@@H](CC(N)=O)C(=O)N[C@H](C(=O)N[C@@H](Cc1ccc(O)cc1)C(N)=O)[C@@H](C)O)C(C)C)[C@@H](C)O, synthetic analogue of human amylin; also called compound 54)
4 | 135 | 133 | 24.4 | 0.181 | K([AEEA-γGlu-C20 diacid])CNTATCATQRLANFLRHSSPNFGAIPSSTPVGSHTY-NH2 (disulfide 2-7; N-terminus assumed; SMILES CC[C@H](C)[C@H](NC(=O)[C@H](C)NC(=O)CNC(=O)[C@H](Cc1ccccc1)NC(=O)[C@H](CC(N)=O)NC(=O)[C@@H]1CCCN1C(=O)[C@H](CO)NC(=O)[C@H](CO)NC(=O)[C@H](Cc1c[nH]cn1)NC(=O)[C@H](CCCNC(=N)N)NC(=O)[C@H](CC(C)C)NC(=O)[C@H](Cc1ccccc1)NC(=O)[C@H](CC(N)=O)NC(=O)[C@H](C)NC(=O)[C@H](CC(C)C)NC(=O)[C@H](CCCNC(=N)N)NC(=O)[C@H](CCC(N)=O)NC(=O)[C@@H](NC(=O)[C@H](C)NC(=O)[C@@H]1CSSC[C@H](NC(=O)[C@@H](N)CCCCNC(=O)COCCOCCNC(=O)CC[C@H](NC(=O)CCCCCCCCCCCCCCCCCCC(=O)O)C(=O)O)C(=O)N[C@@H](CC(N)=O)C(=O)N[C@@H]([C@@H](C)O)C(=O)N[C@@H](C)C(=O)N[C@@H]([C@@H](C)O)C(=O)N1)[C@@H](C)O)C(=O)N1CCC[C@H]1C(=O)N[C@@H](CO)C(=O)N[C@@H](CO)C(=O)N[C@H](C(=O)N1CCC[C@H]1C(=O)N[C@H](C(=O)NCC(=O)N[C@@H](CO)C(=O)N[C@@H](Cc1c[nH]cn1)C(=O)N[C@H](C(=O)N[C@@H](Cc1ccc(O)cc1)C(N)=O)[C@@H](C)O)C(C)C)[C@@H](C)O, synthetic analogue of human amylin; also called compound 57)
